Laboratory results as given in patent US11254722B2, “Recombinant proteins and uses thereof” (ACADEMIA SINICA, priority 2017, dated 2022).
Blank lines part the entries; values can stand above or below the molecule they belong to.

How the values were obtained:
hep3B cells = test: hep3B proliferation assay; type: cell-based, human
Description: (§1) For the proliferation assay, cells except for HUVEC were seeded at a density of 1,000 to 6,000 in 96 wells in an assay buffer of DMEM/F12 plus 0.2% BSA and 10 ug/ml transferrin. Chemical inhibitors were added after 16-20 hours after plating; IGF-1 or other growth factors or test chimeras in assay buffer were added at the time of plating or 16-20 hours after plating. 5,000 HUVEC ells were plated in poly-L-lysine coated 96 wells in M199 with 1%/FBS and HEPES. After 3 to 4 days of culture, growth was determined by incubating cells with Alamar blue for 4 to 6 hours and then the fluorescence (RFU) at 544/590 nm was read. For long term proliferation assays, cells were plated in the growth media with 5% or 10% FBS at densities of 500 to 10,000 cells per cm^2 growth area and grown for 7 to 21 days. Inhibitors and effectors were added 1-4 days after plating. Cells were exposed to cisplatin or gemcitabine for two days. Medium was renewed twice weekly. At completion, cells were fixed and then stained with Giemsa.
The human hepatoma cell line hep3B could be stimulated by many growth factors including IGF-1, IGF-2, HGF, bFGF, VEGF, and neuregulin.

[1] = tested on: MCF-7 breast cancer cells; test: MCF-7 proliferation assay; type: cell-based; settings: fetal bovine serum; FIG. 1, FIG. 4
Description: MCF-7 cells (a breast cancer cell line) were maintained in MEM (GIBCO) plus insulin and NEAA and 10% FBS (Hyclone).
as §1
We next examined the effect of 56662 (BP3/Fc) on the proliferation induced by growth factors that interacted with the IGFBP3. The proliferation of MCF-7 breast cancer cells was induced in serum-free medium by individual growth factors like IGF-1, IGF-2, EGF, TGF-a, Nrgbx, b-FGF, and amphiregulin (FIG. 1).

Molecule: COc1cccc2c1C(=O)c1c(O)c3c(c(O)c1C2=O)C[C@@](O)(C(=O)CO)C[C@@H]3O[C@H]1C[C@H](N)[C@H](O)[C@H](C)O1 [doxorubicin, reference compound]
- proliferation of hep3B cells (hep3B cells; 0.01 uM doxorubicin): greatly inhibited

- IC50, FBS-stimulated proliferation of hep3B cells (hep3B cells; Table 10): no inh
- IC50, HGF-stimulated proliferation of hep3B cells (hep3B cells; Table 10): no inh
- IC50, IGF1-stimulated proliferation of hep3B cells (hep3B cells; Table 10): No inh
- IC50, bFGF-stimulated proliferation of hep3B cells (hep3B cells; Table 10): no inh
- IC50, nrg-stimulated proliferation of hep3B cells (hep3B cells; Table 10): No inh
B1: met3con: SEQ ID NO: 32; Met3con is the met3 domain Fc (protein)
chain: MSEVPVARVWLVLLLLTVQVGVTAGAAASGGGSGGGGSGGGGSGGGGDPIVYEIHPTKSFISTWWKEPLNIVSFLFCFASGGSTITGVGKNLNSVSVPRMVINVHEAGRNFTVACQHRSNSEIICCTTPSLQQLNLQLPLKTKAFFMLDGILSKYFDLIYVHSGGGSGGGTGVECPPCPAPPVAGPSVFLFPPKPKDQLMISRTPEVTCVVVDVSHEDPEVKFNWYVDGVEVHNAKTKPREEQYNSTYRVVSVLTVLHQDWLNGKEYKCKVSNKGLPSSIEKTISKAKGQPREPQVYTLPPSREEMTKNQVSLTCLVKGFYPSDIAVEWESNGQPENNYKTTPPVLDSDGSFFLYSKLTVDKSRWQQGNVFSCSVMHEGLHNHYTQKSLSLSPGK

B2: 105795: IGFBP3 with IGFBP4 linker deletion-Fc, SEQ ID NO: 9 (protein)
chain: MSEVPVARVWLVLLLLTVQVGVTAGGASSAGLGPVVRCEPCDARALAQCAPPPAVCAELVREPGCGCCLTCALSEGQPCGIYTERCGSGLRCQPSPDEARPLQALLDGRGLCMELAEIEAIQESLQPSDKDEGDHPNNSFSPCSAHDRRCLQETEYGPCRREMEDTLNHLKFLNVLSPRGVHIPNCDKKGFYKKKQCRPSKGRKRGFCWCVDKYGQPLPGYTTKGKEDVHCYSMQSKVECPPCPAPPVAGPSVFLFPPKPKDQLMISRTPEVTCVVVDVSHEDPEVKFNWYVDGVEVHNAKTKPREEQYNSTYRVVSVLTVLHQDWLNGKEYKCKVSNKGLPSSIEKTISKAKGQPREPQVYTLPPSREEMTKNQVSLTCLVKGFYPSDIAVEWESNGQPENNYKTTPPVLDSDGSFFLYSKLTVDKSRWQQGNVFSCSVMHEGLHNHYTQKSLSLSPGK
- inhibition of FBS-induced proliferation of MCF-7 [1]: unable to inhibit

B3: 80716: IGFBP3 with IGFBP6 linker-gly 6 linker-v1v2-Fc, SEQ ID NO: 16 (protein)
chain: MSEVPVARVWLVLLLLTVQVGVTAGGASSAGLGPVVRCEPCDARALAQCAPPPAVCAELVREPGCGCCLTCALSEGQPCGIYTERCGSGLRCQPSPDEARPLQALLDGRGLCPARAPAVAEENPKESKPQAGTARPQDVNRRDQQRNPGTSTTPSQPNSAGVQDTEMGPCRREMEDTLNHLKFLNVLSPRGVHIPNCDKKGFYKKKQCRPSKGRKRGFCWCVDKYGQPLPGYTTKGKEDVHCYSMQSKPARAPAVAEENPKESKPQAGTARPQDVNRRDQQRNPGTSTTPSQPNSAGVQDTEMIYIFISDTGRPFVEMYSEIPEIIHMTEGRELVIPCRVTSPNITVTLKKFPLDTLIPDGKRIIWDSRKGFIISNATYKEIGLLTCEATVNGHLYKTNYLTHRQGYRIYDVVLSPSHGIELSVGEKLVLNCTARTELNVGIDFNWEYPSSKHQHKKLVNRDLKTQSGSEMKKFLSTLTIDGVTRSDQGLYTCAASSGLMTKKNSTFVRVHEKVECPPCPAPPVAGPSVFLFPPKPKDQLMISRTPEVTCVVVDVSHEDPEVKFNWYVDGVEVHNAKTKPREEQYNSTYRVVSVLTVLHQDWLNGKEYKCKVSNKGLPSSIEKTISKAKGQPREPQVYTLPPSREEMTKNQVSLTCLVKGFYPSDIAVEWESNGQPENNYKTTPPVLDSDGSFFLYSKLTVDKSRWQQGNVFSCSVMHEGLHNHYTQKSLSLSPGK
- inhibition of FBS-induced proliferation of MCF-7 [1]: unable to inhibit
